B1: CPEB3 Ribozyme (parent)
chain: GGGGGCCACAGCAGAAGCGUUCACGUCGCGGCCCCUGUCAGAUUCUGGUGAAUCUGCGAAUUCUGCUGU

Variants of B1 are the subject of this data set. The experiment in a line: self-cleavage, relative activity (ratio to wild type); higher = more cleavage; co-transcriptional.
With G4A U26G, the self-cleavage turned out to be 0.504.
As for G4A U26A, the figure is 0.604; as for G4C A60G, 0.235; as for G4C A60C, 0.188.
Then G3A U20C, with 0.0517; and G3A U20G, with 0.11.
Then G4A C29A, with 0.226; and G3C G31U, with 0.048; and G3C G31A, with 0.0559.
In the case of G3C U20C, the self-cleavage worked out at 0.
Then G3U G28A, with 0.0444; and G4C G50U, with 0.637.
On to G4C U26C, for which the self-cleavage amounted to 0.472.
Then G3C U46G, with 0.068; and G3A G5C, with 0.123; and G3C C27A, with 0.0183.
Turning to G4A C35U, the self-cleavage is 0.244.
As for G3C C24A, the figure is 0.0571; as for G3U C29A, 0.0168; as for G3U C29G, 0.0557.
On to G4C A52U, for which the self-cleavage was 0.603.
As for G3U A40C, the figure is 0.0469; as for G3A G50C, 0.595; as for G3A G50U, 0.582.
Then G3U G19C, with 0.0665; and G3A A40U, with 0.379; and G3A A40C, with 0.166.
Regarding G3A C45A, the self-cleavage was determined as 0.544.
Then G3A C45G, with 0.536.
As for G3C G68U, the figure is 0.374; as for G4A C6G, 0.07.
For the variant G4A C6U, the self-cleavage worked out at 0.426.
Then G3C A42G, with 0.106.
In the case of G3C A10U, the self-cleavage was 0.334.
Take G4A A13G: the self-cleavage was found to be 0.88.
G3A G48C: the self-cleavage was 0.698.
As for G3U A59G, the figure is 0.0478.
Then G3C U69A, with 0.209.
Then G4A G56A, with 0.604; and G3A A51G, with 0.584; and G3A U38A, with 0.514.
Take G3A U38C: the self-cleavage turned out to be 0.419.
Then G3C C54A, with 0.0635.
Then G3C C54U, with 0.125; and G3U C57G, with 0.0443; and G4A A52G, with 0.864.
Then G4A A52C, with 0.763; and G4A A10U, with 0.941; and G3C G30U, with 0.0314.
On to G4C C33U, for which the self-cleavage was 0.804.
Then G4C C33G, with 0.98; and G4C C33A, with 0.989.
Consider G3A C9U, for which the self-cleavage was 0.886.
Then G3A U53A, with 0.44; and G4C A16U, with 0.197; and G4C A16C, with 0.0339.
Then G4A C39G, with 0.717; and G3U G11U, with 0.0744.
As for G3U G11A, the figure is 0.125.
G4C U69C: the self-cleavage is 0.958.
Then G3U A10G, with 0.158.
G3U G56A: the self-cleavage came out at 0.035.
Regarding G3C C66U, the self-cleavage is 0.127.
G3A A16G: the self-cleavage worked out at 0.315.
G4A C7G: the self-cleavage worked out at 0.0338.
As for G4U, the figure is 0.806; as for G4C, 0.69; as for G4A, 0.898.
Then G4C C27G, with 0.108; and G4C C27A, with 0.0979.
Consider G3U C34G, for which the self-cleavage is 0.643.
Then G3C C45G, with 0.0888; and G3C U26A, with 0.0495; and G4C U55G, with 0.231.
Consider G4A A40U, for which the self-cleavage amounted to 0.48.
As for G4A A40G, the figure is 0.773; as for G3A C33A, 0.193.
As for G3C G56C, the figure is 0.0668; as for G3C G56A, 0.0675; as for G3C A51U, 0.115.
Then G4A U55C, with 0.351; and G4A U55A, with 0.636.
Turning to G4C C39G, the self-cleavage turned out to be 0.298.
Then G3U U20G, with 0.0082; and G3U U20C, with 0.0468.
As for G3C U43C, the figure is 0.121.
As for G3U C63A, the figure is 0.0888.
As to G3U C63G, the self-cleavage worked out at 0.1.
Then G3C A13G, with 0.18; and G4A G48U, with 0.919; and G4A G48C, with 0.802.
For the variant G3U G58U, the self-cleavage was found to be 0.189.
With G3U U38A, the self-cleavage is 0.22.
Then G3A C39G, with 0.39; and G3C C34A, with 0.465; and G3C C34U, with 0.45.
Then G3U U61G, with 0.114.
As for G3U G65U, the figure is 0.101; as for G3U C32G, 0.054; as for G3U C32A, 0.0393.
As for G4C U61A, the self-cleavage stood at 0.147.
As for G3C G5C, the figure is 0.0475; as for G4C U44A, 0.373.
As for G4C U44C, the figure is 0.47; as for G3U G25A, 0.046; as for G3U G25U, 0.0356.
For the variant G3A C6G, the self-cleavage came out at 0.0163.
As for G3A C6U, the figure is 0.245.
Then G3A C6A, with 0.0773; and G3A G47A, with 0.65; and G3U C12U, with 0.169.
Then G3U C12G, with 0.0607; and G3A U43G, with 0.422; and G3A U43A, with 0.356.
Regarding G3A U43C, the self-cleavage came to 0.41.
Regarding G4C C63G, the self-cleavage turned out to be 0.211.
On to G4C G31U, for which the self-cleavage was found to be 0.179.
On to G4C G31A, for which the self-cleavage stood at 0.179.
As for G3C C32U, the figure is 0.0592; as for G3C C32G, 0.0514.
Then G3C C39A, with 0.0598; and G4C C57U, with 0.234.
As for G4C C57G, the figure is 0.15; as for G3A G14U, 0.29.
G3A G14A: the self-cleavage was found to be 0.329.
In the case of G4C U38C, the self-cleavage turned out to be 0.302.
For the variant G4A U46G, the self-cleavage came out at 0.841.
Then G4A U46A, with 0.899.
Turning to G3C U64G, the self-cleavage is 0.0913.
As to G3U U62C, the self-cleavage came out at 0.0865.
Then G4A U53A, with 0.602; and G4A U53G, with 0.517; and G4A C22A, with 0.087.
Then G3U U49G, with 0.0811; and G4A U64G, with 0.672.
Then G4A U64A, with 0.7; and G4A U64C, with 0.696; and G4C C22G, with 0.082.
Turning to G4C C22U, the self-cleavage is 0.074.
Then G4C U64G, with 0.355; and G3C U53A, with 0.0705.
Then G4C A15U, with 0.0935.
As for G3A G41C, the figure is 0.198.
As to G3U A51G, the self-cleavage turned out to be 0.0734.
Then G3A U69C, with 0.97; and G3C C9U, with 0.441.
As for G4A C33A, the figure is 0.897.
Then G4A C33U, with 0.968.
Regarding G4A C34G, the self-cleavage was 0.16.
Turning to G4A G25C, the self-cleavage came out at 0.114.
As for G3U G68U, the figure is 0.546; as for G3U G68C, 0.548; as for G4C A23U, 0.801.
As for G3A C18G, the figure is 0.0813; as for G3A C18A, 0.066; as for G3A U67A, 0.778.
For the variant G3U C18A, the self-cleavage worked out at 0.0631.
As for G3U C18U, the figure is 0.0757.
As for G3U C18G, the figure is 0.0415.
Then G4A C54U, with 0.776; and G4A C54A, with 0.457.
Turning to G3U C27A, the self-cleavage was 0.0666.
With G4C U53G, the self-cleavage is 0.142.
Then G4A C27G, with 0.119; and G4A G17U, with 0.145; and G4A U38C, with 0.699.
On to G3A G30U, for which the self-cleavage turned out to be 0.107.

The record behind these values is the RNAGym collection of RNA variant scans (doi:10.7554/elife.80360).
